According to US11965039B2, “Compstatin analogues and their medical uses” (priority 2018, dated 2024):
Positions of bridges follow the written chain, without caps; N, C: chain ends. Non-standard residues stand in square brackets, D forms with d. Trp(1-Me) = Cn1cc(C[C@H](N)C(=O)O)c2ccccc21; Sar = CNCC(=O)O

B1: Compound 86 (peptide)
peptide: Ac-SEFCI[Trp(1-Me)]QDWGEHKC[Sar]EA-NH2
modifications: disulfide 4-14
SMILES: CC[C@H](C)[C@@H]1NC(=O)[C@@H](NC(=O)[C@H](Cc2ccccc2)NC(=O)[C@H](CCC(=O)O)NC(=O)[C@H](CO)NC(C)=O)CSSC[C@@H](C(=O)N(C)CC(=O)N[C@@H](CCC(=O)O)C(=O)N[C@@H](C)C(N)=O)NC(=O)[C@H](CCCCN)NC(=O)[C@H](Cc2c[nH]cn2)NC(=O)[C@H](CCC(=O)O)NC(=O)CNC(=O)[C@H](Cc2c[nH]c3ccccc23)NC(=O)[C@H](CC(=O)O)NC(=O)[C@H](CCC(N)=O)NC(=O)[C@H](Cc2cn(C)c3ccccc23)NC1=O
B2: Compound 82 (peptide)
peptide: Ac-SE[Sar]CI[Trp(1-Me)]QDWGEHRCTEA-NH2
modifications: disulfide 4-14
SMILES: CC[C@H](C)[C@@H]1NC(=O)[C@@H](NC(=O)CN(C)C(=O)[C@H](CCC(=O)O)NC(=O)[C@H](CO)NC(C)=O)CSSC[C@@H](C(=O)N[C@H](C(=O)N[C@@H](CCC(=O)O)C(=O)N[C@@H](C)C(N)=O)[C@@H](C)O)NC(=O)[C@H](CCCNC(=N)N)NC(=O)[C@H](Cc2c[nH]cn2)NC(=O)[C@H](CCC(=O)O)NC(=O)CNC(=O)[C@H](Cc2c[nH]c3ccccc23)NC(=O)[C@H](CC(=O)O)NC(=O)[C@H](CCC(N)=O)NC(=O)[C@H](Cc2cn(C)c3ccccc23)NC1=O
B3: Compound 85 (peptide)
peptide: Ac-EFCI[Trp(1-Me)]QDWGEHRCES-NH2
modifications: disulfide 3-13
SMILES: CC[C@H](C)[C@@H]1NC(=O)[C@@H](NC(=O)[C@H](Cc2ccccc2)NC(=O)[C@H](CCC(=O)O)NC(C)=O)CSSC[C@@H](C(=O)N[C@@H](CCC(=O)O)C(=O)N[C@@H](CO)C(N)=O)NC(=O)[C@H](CCCNC(=N)N)NC(=O)[C@H](Cc2c[nH]cn2)NC(=O)[C@H](CCC(=O)O)NC(=O)CNC(=O)[C@H](Cc2c[nH]c3ccccc23)NC(=O)[C@H](CC(=O)O)NC(=O)[C@H](CCC(N)=O)NC(=O)[C@H](Cc2cn(C)c3ccccc23)NC1=O
B4: Compound 81 (peptide)
peptide: Ac-SE[Sar]CI[Trp(1-Me)]QDWGEHRC[Sar]EA-NH2
modifications: disulfide 4-14
SMILES: CC[C@H](C)[C@@H]1NC(=O)[C@@H](NC(=O)CN(C)C(=O)[C@H](CCC(=O)O)NC(=O)[C@H](CO)NC(C)=O)CSSC[C@@H](C(=O)N(C)CC(=O)N[C@@H](CCC(=O)O)C(=O)N[C@@H](C)C(N)=O)NC(=O)[C@H](CCCNC(=N)N)NC(=O)[C@H](Cc2c[nH]cn2)NC(=O)[C@H](CCC(=O)O)NC(=O)CNC(=O)[C@H](Cc2c[nH]c3ccccc23)NC(=O)[C@H](CC(=O)O)NC(=O)[C@H](CCC(N)=O)NC(=O)[C@H](Cc2cn(C)c3ccccc23)NC1=O
B5: Compound 3 (peptide)
peptide: Ac-ESSAICIWQDWGEHRCT-NH2
modifications: disulfide 6-16
SMILES: CC[C@H](C)[C@H](NC(=O)[C@H](C)NC(=O)[C@H](CO)NC(=O)[C@H](CO)NC(=O)[C@H](CCC(=O)O)NC(C)=O)C(=O)N[C@H]1CSSC[C@@H](C(=O)N[C@H](C(N)=O)[C@@H](C)O)NC(=O)[C@H](CCCNC(=N)N)NC(=O)[C@H](Cc2c[nH]cn2)NC(=O)[C@H](CCC(=O)O)NC(=O)CNC(=O)[C@H](Cc2c[nH]c3ccccc23)NC(=O)[C@H](CC(=O)O)NC(=O)[C@H](CCC(N)=O)NC(=O)[C@H](Cc2c[nH]c3ccccc23)NC(=O)[C@H]([C@@H](C)CC)NC1=O
B6: Compound 6 (peptide)
peptide: Ac-ICIWQDWGSHRCT-NH2
modifications: disulfide 2-12
SMILES: CC[C@H](C)[C@H](NC(C)=O)C(=O)N[C@H]1CSSC[C@@H](C(=O)N[C@H](C(N)=O)[C@@H](C)O)NC(=O)[C@H](CCCNC(=N)N)NC(=O)[C@H](Cc2c[nH]cn2)NC(=O)[C@H](CO)NC(=O)CNC(=O)[C@H](Cc2c[nH]c3ccccc23)NC(=O)[C@H](CC(=O)O)NC(=O)[C@H](CCC(N)=O)NC(=O)[C@H](Cc2c[nH]c3ccccc23)NC(=O)[C@H]([C@@H](C)CC)NC1=O
B7: Compound 19 (peptide)
peptide: Ac-ICIWQDWGAHSCT-NH2
modifications: disulfide 2-12
SMILES: CC[C@H](C)[C@H](NC(C)=O)C(=O)N[C@H]1CSSC[C@@H](C(=O)N[C@H](C(N)=O)[C@@H](C)O)NC(=O)[C@H](CO)NC(=O)[C@H](Cc2c[nH]cn2)NC(=O)[C@H](C)NC(=O)CNC(=O)[C@H](Cc2c[nH]c3ccccc23)NC(=O)[C@H](CC(=O)O)NC(=O)[C@H](CCC(N)=O)NC(=O)[C@H](Cc2c[nH]c3ccccc23)NC(=O)[C@H]([C@@H](C)CC)NC1=O
B8: Compound B (peptide)
peptide: Ac-ICVWQDWGSHRCT-NH2
modifications: disulfide 2-12
SMILES: CC[C@H](C)[C@H](NC(C)=O)C(=O)N[C@H]1CSSC[C@@H](C(=O)N[C@H](C(N)=O)[C@@H](C)O)NC(=O)[C@H](CCCNC(=N)N)NC(=O)[C@H](Cc2c[nH]cn2)NC(=O)[C@H](CO)NC(=O)CNC(=O)[C@H](Cc2c[nH]c3ccccc23)NC(=O)[C@H](CC(=O)O)NC(=O)[C@H](CCC(N)=O)NC(=O)[C@H](Cc2c[nH]c3ccccc23)NC(=O)[C@H](C(C)C)NC1=O
B9: Compound E (peptide)
peptide: Ac-ICVWQDWGAHSCT-NH2
modifications: disulfide 2-12
SMILES: CC[C@H](C)[C@H](NC(C)=O)C(=O)N[C@H]1CSSC[C@@H](C(=O)N[C@H](C(N)=O)[C@@H](C)O)NC(=O)[C@H](CO)NC(=O)[C@H](Cc2c[nH]cn2)NC(=O)[C@H](C)NC(=O)CNC(=O)[C@H](Cc2c[nH]c3ccccc23)NC(=O)[C@H](CC(=O)O)NC(=O)[C@H](CCC(N)=O)NC(=O)[C@H](Cc2c[nH]c3ccccc23)NC(=O)[C@H](C(C)C)NC1=O
B10: Compound J (peptide)
peptide: Ac-ICVWQDWGEHRCTEGE-NH2
modifications: disulfide 2-12
SMILES: CC[C@H](C)[C@H](NC(C)=O)C(=O)N[C@H]1CSSC[C@@H](C(=O)N[C@H](C(=O)N[C@@H](CCC(=O)O)C(=O)NCC(=O)N[C@@H](CCC(=O)O)C(N)=O)[C@@H](C)O)NC(=O)[C@H](CCCNC(=N)N)NC(=O)[C@H](Cc2c[nH]cn2)NC(=O)[C@H](CCC(=O)O)NC(=O)CNC(=O)[C@H](Cc2c[nH]c3ccccc23)NC(=O)[C@H](CC(=O)O)NC(=O)[C@H](CCC(N)=O)NC(=O)[C@H](Cc2c[nH]c3ccccc23)NC(=O)[C@H](C(C)C)NC1=O
B11: Compound C (peptide)
peptide: Ac-ESSAICVWQDWGEHRCT-NH2
modifications: disulfide 6-16
SMILES: CC[C@H](C)[C@H](NC(=O)[C@H](C)NC(=O)[C@H](CO)NC(=O)[C@H](CO)NC(=O)[C@H](CCC(=O)O)NC(C)=O)C(=O)N[C@H]1CSSC[C@@H](C(=O)N[C@H](C(N)=O)[C@@H](C)O)NC(=O)[C@H](CCCNC(=N)N)NC(=O)[C@H](Cc2c[nH]cn2)NC(=O)[C@H](CCC(=O)O)NC(=O)CNC(=O)[C@H](Cc2c[nH]c3ccccc23)NC(=O)[C@H](CC(=O)O)NC(=O)[C@H](CCC(N)=O)NC(=O)[C@H](Cc2c[nH]c3ccccc23)NC(=O)[C@H](C(C)C)NC1=O
B12: Compound H (peptide)
peptide: Ac-EGSAICVWQDWGEHRC[Sar]E-NH2
modifications: disulfide 6-16
SMILES: CC[C@H](C)[C@H](NC(=O)[C@H](C)NC(=O)[C@H](CO)NC(=O)CNC(=O)[C@H](CCC(=O)O)NC(C)=O)C(=O)N[C@H]1CSSC[C@@H](C(=O)N(C)CC(=O)N[C@@H](CCC(=O)O)C(N)=O)NC(=O)[C@H](CCCNC(=N)N)NC(=O)[C@H](Cc2c[nH]cn2)NC(=O)[C@H](CCC(=O)O)NC(=O)CNC(=O)[C@H](Cc2c[nH]c3ccccc23)NC(=O)[C@H](CC(=O)O)NC(=O)[C@H](CCC(N)=O)NC(=O)[C@H](Cc2c[nH]c3ccccc23)NC(=O)[C@H](C(C)C)NC1=O
B13: Compound F (peptide)
peptide: Ac-ICVWQDWGEHSCT-NH2
modifications: disulfide 2-12
SMILES: CC[C@H](C)[C@H](NC(C)=O)C(=O)N[C@H]1CSSC[C@@H](C(=O)N[C@H](C(N)=O)[C@@H](C)O)NC(=O)[C@H](CO)NC(=O)[C@H](Cc2c[nH]cn2)NC(=O)[C@H](CCC(=O)O)NC(=O)CNC(=O)[C@H](Cc2c[nH]c3ccccc23)NC(=O)[C@H](CC(=O)O)NC(=O)[C@H](CCC(N)=O)NC(=O)[C@H](Cc2c[nH]c3ccccc23)NC(=O)[C@H](C(C)C)NC1=O

target: T1, Human C3 (Complement tech cat #A113c) (human, UniProt P01024 23-1663); test: SPR (Biacore T200), human C3 immobilised, peptide injected, 1:1 fit
T1 construct: Purified protein immobilised by amine coupling in the SPR assay; in the haemolysis assay it is the C3 of diluted human serum; Native C3 consists of a beta and an alpha chain cut from one precursor; also called C3 protein
T1 sequence (P01024 23-1663 limits assumed): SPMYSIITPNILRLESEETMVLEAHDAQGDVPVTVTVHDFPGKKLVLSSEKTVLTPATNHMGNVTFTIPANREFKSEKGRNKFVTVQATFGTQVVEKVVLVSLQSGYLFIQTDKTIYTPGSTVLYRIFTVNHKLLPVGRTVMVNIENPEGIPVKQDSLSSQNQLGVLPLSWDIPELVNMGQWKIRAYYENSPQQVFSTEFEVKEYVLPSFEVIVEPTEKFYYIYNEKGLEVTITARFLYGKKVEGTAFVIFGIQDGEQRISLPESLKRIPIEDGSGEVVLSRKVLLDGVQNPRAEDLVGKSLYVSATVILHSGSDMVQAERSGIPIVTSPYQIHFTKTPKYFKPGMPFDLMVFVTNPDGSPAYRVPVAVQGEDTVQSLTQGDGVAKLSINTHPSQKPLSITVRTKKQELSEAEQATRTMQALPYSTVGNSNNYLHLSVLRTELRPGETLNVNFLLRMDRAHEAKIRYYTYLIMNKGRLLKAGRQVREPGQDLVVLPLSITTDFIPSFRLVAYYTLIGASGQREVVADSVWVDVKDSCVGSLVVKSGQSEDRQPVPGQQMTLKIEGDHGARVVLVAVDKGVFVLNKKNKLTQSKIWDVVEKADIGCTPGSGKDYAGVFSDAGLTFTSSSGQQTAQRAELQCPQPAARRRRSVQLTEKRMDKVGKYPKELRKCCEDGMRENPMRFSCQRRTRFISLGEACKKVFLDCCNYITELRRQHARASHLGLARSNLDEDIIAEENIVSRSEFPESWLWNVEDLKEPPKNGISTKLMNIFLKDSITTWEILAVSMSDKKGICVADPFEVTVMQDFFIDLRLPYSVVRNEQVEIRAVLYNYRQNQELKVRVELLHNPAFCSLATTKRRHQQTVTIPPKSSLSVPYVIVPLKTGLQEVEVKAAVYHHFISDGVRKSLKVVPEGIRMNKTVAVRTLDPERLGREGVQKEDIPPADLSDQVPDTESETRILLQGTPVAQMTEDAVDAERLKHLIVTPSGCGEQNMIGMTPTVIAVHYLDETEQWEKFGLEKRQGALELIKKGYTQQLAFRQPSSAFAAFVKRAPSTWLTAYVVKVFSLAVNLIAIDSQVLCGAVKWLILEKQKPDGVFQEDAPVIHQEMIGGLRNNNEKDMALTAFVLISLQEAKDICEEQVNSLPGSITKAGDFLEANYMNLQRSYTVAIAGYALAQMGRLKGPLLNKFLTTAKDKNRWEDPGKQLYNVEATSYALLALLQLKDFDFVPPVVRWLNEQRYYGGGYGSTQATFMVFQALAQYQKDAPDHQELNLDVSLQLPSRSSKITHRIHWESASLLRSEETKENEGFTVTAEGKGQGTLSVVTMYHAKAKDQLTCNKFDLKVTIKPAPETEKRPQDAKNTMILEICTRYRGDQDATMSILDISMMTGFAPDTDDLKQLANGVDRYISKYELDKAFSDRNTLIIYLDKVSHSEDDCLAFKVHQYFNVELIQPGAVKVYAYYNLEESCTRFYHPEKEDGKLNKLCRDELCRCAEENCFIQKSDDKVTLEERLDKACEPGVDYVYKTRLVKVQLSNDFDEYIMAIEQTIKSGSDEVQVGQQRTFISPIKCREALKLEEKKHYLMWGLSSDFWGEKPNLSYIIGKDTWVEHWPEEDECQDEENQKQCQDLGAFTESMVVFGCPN
In short: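 Human C3 amine-coupled on CM5 chips to about 3000 RU. Multi-cycle runs on Biacore T200 at 25° C: peptides at 6-8 rising concentrations, 60-120 s at 30 µL/min in 10 mM Tris pH 7.4, 150 mM NaCl, 0.05% Tween20, dissociation up to 10 min; 3 M MgCl2 regeneration. Kd derived.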

Binder | Kd [nM]
B1 | 2.6
B2 | 5.4
B3 | 1.3
B4 | 9.7

target: T1, Human C3 (Complement tech cat #A113c); test: cell-based or functional assay

Binder | inhibition of hemolysis IC50 [nM]
B1 | < 100
B2 | < 100
B3 | < 100
B5 | < 100
B4 | < 100
B6 | < 250
B7 | < 250

target: T1, Human C3 (Complement tech cat #A113c); test: cell-based or functional assay; remark: another data set of the same source

Binder | CP hemolysis IC50 [nM]
B8 | 360
B9 | > 1000
B10 | 240
B5 | 69
B6 | 140
B11 | 300
B12 | 330
B13 | 540
B7 | 140
